Data published in patent publication EP1336618A1.
“And” between values parts separate entries of the source, which are not always exact repeats. Identical values can stand only once.

Biological target: human C3b (human) (UniProt P01024)
Assay: cell-based or functional assay

Chain of UniProt P01024 (P01024 749-1663 limits assumed, chain 1 of 2): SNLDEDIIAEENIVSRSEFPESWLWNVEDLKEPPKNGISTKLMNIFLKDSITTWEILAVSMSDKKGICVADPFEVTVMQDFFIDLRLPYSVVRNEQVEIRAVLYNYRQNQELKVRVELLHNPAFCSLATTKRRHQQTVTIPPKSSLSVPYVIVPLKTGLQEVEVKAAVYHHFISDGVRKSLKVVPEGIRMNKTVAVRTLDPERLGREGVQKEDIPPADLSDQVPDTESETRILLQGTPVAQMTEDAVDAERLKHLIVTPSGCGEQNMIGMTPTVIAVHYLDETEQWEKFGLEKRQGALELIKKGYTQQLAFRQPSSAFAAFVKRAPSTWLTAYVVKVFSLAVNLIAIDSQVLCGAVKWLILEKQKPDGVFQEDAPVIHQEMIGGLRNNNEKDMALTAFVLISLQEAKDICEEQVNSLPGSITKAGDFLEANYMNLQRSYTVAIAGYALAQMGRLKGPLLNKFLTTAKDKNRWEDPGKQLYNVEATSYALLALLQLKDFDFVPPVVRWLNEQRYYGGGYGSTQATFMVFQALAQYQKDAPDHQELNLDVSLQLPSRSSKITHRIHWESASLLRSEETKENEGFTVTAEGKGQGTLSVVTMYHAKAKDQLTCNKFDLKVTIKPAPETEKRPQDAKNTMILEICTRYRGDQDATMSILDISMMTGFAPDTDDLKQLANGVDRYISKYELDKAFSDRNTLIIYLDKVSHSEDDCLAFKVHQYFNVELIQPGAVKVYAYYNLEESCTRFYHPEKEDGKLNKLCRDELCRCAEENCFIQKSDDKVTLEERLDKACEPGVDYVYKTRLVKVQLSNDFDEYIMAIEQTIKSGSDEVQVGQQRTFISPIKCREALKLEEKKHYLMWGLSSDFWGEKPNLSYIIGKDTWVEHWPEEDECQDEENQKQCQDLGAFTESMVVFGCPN
Chain of UniProt P01024 (P01024 23-667 limits assumed, chain 2 of 2): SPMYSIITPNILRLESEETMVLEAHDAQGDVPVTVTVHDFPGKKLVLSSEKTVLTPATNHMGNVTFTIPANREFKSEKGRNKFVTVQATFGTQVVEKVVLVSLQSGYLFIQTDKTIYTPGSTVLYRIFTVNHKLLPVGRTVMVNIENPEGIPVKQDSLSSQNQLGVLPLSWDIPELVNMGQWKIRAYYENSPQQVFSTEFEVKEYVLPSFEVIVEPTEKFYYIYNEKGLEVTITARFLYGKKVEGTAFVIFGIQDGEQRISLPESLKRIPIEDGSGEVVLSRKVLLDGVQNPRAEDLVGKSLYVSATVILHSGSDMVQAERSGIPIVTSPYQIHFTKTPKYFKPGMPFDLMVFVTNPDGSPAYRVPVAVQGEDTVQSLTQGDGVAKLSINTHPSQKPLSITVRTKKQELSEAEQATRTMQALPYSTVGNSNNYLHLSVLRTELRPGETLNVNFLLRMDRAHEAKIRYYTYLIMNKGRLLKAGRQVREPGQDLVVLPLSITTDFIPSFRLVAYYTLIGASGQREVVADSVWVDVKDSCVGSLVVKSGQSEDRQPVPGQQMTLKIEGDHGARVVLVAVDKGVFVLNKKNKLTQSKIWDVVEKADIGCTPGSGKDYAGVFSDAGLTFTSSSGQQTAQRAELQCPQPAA

Substance | half-maximum cleavage activity of hC3b (cofactor dilution, start 0.7 µg in 5 µl) (fold dilution (1:x)) | difference in half-maximum activity in the cleavage of human C3b against human FHL-1 (dilution step)
human FHL-1 (factor H like protein 1), recombinant (from UniProt P08603 19-449) | 16 and 8 | 
recombinant fragment pFH SCR1-4 (porcine complement regulator factor H, short consensus repeats 1-4) | 8 and 16 | < 1
